Target: Desulfofustis deltaproteobacterium ligand-gated ion channel (DeCLIC) (Desulfofustis deltaproteobacterium)
Assay: cryo-EM structure; DeCLIC in DDM detergent micelles, pH 7, two datasets: with 10 mM Ca2+ and Ca2+-free (chelated); C5 symmetry; homopentamer

“Desulfofustis deltaproteobacterium ligand-gated ion channel (DeCLIC) (natural protein)” showed a stoichiometry N of 5.
